Results reported in the supplement of paper PMC10567573.

B1: ZNF511 (parent)
chain: HLYPADFRFDKPKKSRSPASAEAP

Variants of: B1
Assay: protein stability index of a GFP-peptide fusion (GPS, HEK-293T) (PSI 1-6); higher = more stable
Conditions: c terminus: a fixed tail appended
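Further: lentivirally expressed fusions sorted by FACS into six bins by GFP to DsRed ratio, PSI derived from sequencing read proportions per bin multiplied by bin number.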

With HLYPADFRFDRPKKSRSPASAEAP [K11R] as the variant, how does the protein stability index read?
The protein stability index was 2.89.

With HLYPADFRNDKPKKSRSPASAEAP [F9N] as the variant, how does the protein stability index read?
Its protein stability index is 2.63.

Which protein stability index does the source give for HLYPADFRMDKPKKSRSPASAEAP [F9M] here?
Its protein stability index is 2.01.

Which protein stability index does the source give for HLYPADFRQDKPKKSRSPASAEAP [F9Q] here?
The protein stability index was 2.

Which protein stability index does the source give for HLYPADFRYDKPKKSRSPASAEAP [F9Y] here?
The protein stability index was 3.29.

Which protein stability index does the source give for HLYPADFRSDKPKKSRSPASAEAP [F9S] here?
The protein stability index was 2.05.

With HLYPADFRTDKPKKSRSPASAEAP [F9T] as the variant, how does the protein stability index read?
The protein stability index was 2.85.

Which protein stability index does the source give for HLYPADFRWDKPKKSRSPASAEAP [F9W] here?
The protein stability index was 2.82.

With HLYPADFRRDKPKKSRSPASAEAP [F9R] as the variant, how does the protein stability index read?
The protein stability index was 3.71.

Which protein stability index does the source give for HLYPADFRPDKPKKSRSPASAEAP [F9P] here?
The protein stability index was 2.35.

With HLYPADFRFDKPKKRRSPASAEAP [S15R] as the variant, how does the protein stability index read?
Its protein stability index is 1.78.

For HLYPADFRFDKPKKWRSPASAEAP [S15W], which protein stability index is on record?
Its protein stability index is 1.93.

For HLYPADFRFDKPKKQRSPASAEAP [S15Q], which protein stability index is on record?
The protein stability index was 3.19.

For HLYPADFRFDKPKKHRSPASAEAP [S15H], which protein stability index is on record?
The protein stability index was 2.93.

Which protein stability index does the source give for HLYPADFRFDKPKKDRSPASAEAP [S15D] here?
Its protein stability index is 3.35.

Which protein stability index does the source give for HLYPADFRFDKPKKKRSPASAEAP [S15K] here?
The protein stability index was 3.24.

Which protein stability index does the source give for HLYPADFRFDKPKKERSPASAEAP [S15E] here?
The protein stability index was 3.18.

With HLYPADFRFDKPKKFRSPASAEAP [S15F] as the variant, how does the protein stability index read?
The protein stability index was 3.04.

For HLYPADFRFDKPKKPRSPASAEAP [S15P], which protein stability index is on record?
Its protein stability index is 3.19.

With HLYPADFRFDKPKKNRSPASAEAP [S15N] as the variant, how does the protein stability index read?
The protein stability index was 2.67.

For HLYPADFRFDKPKKGRSPASAEAP [S15G], which protein stability index is on record?
Its protein stability index is 2.86.

Which protein stability index does the source give for HLYPADFRFDKPKKIRSPASAEAP [S15I] here?
Its protein stability index is 3.23.

For HLYPADFRFDKPKKTRSPASAEAP [S15T], which protein stability index is on record?
The protein stability index was 2.4.

For HLYPADFRFDKPKKLRSPASAEAP [S15L], which protein stability index is on record?
The protein stability index was 2.92.

With HLYPADFRFDKPKKARSPASAEAP [S15A] as the variant, how does the protein stability index read?
The protein stability index was 3.39.

Which protein stability index does the source give for HLYPADFRFDKPKKMRSPASAEAP [S15M] here?
The protein stability index was 2.88.

For HLYPADFRFDKPKKYRSPASAEAP [S15Y], which protein stability index is on record?
The protein stability index was 2.51.

For HLYPADFRFDKPKKVRSPASAEAP [S15V], which protein stability index is on record?
Its protein stability index is 2.36.

With HLYPADFRFDKPKKCRSPASAEAP [S15C] as the variant, how does the protein stability index read?
The protein stability index was 2.56.

Which protein stability index does the source give for HLYPADFRFDKPKKSRQPASAEAP [S17Q] here?
Its protein stability index is 3.

With HLYPADFRFDKPKKSRFPASAEAP [S17F] as the variant, how does the protein stability index read?
Its protein stability index is 2.7.

With HLYPADFRFDKPKKSRHPASAEAP [S17H] as the variant, how does the protein stability index read?
Its protein stability index is 2.86.

For HLYPADFRFDKPKKSRWPASAEAP [S17W], which protein stability index is on record?
Its protein stability index is 2.27.

For HLYPADFRFDKPKKSRRPASAEAP [S17R], which protein stability index is on record?
Its protein stability index is 3.29.

With HLYPADFRFDKPKKSRKPASAEAP [S17K] as the variant, how does the protein stability index read?
The protein stability index was 3.01.

Which protein stability index does the source give for HLYPADFRFDKPKKSRGPASAEAP [S17G] here?
The protein stability index was 2.63.

For HLYPADFRFDKPKKSRIPASAEAP [S17I], which protein stability index is on record?
The protein stability index was 2.03.

Which protein stability index does the source give for HLYPADFRFDKPKKSREPASAEAP [S17E] here?
The protein stability index was 3.18.

With HLYPADFRFDKPKKSRMPASAEAP [S17M] as the variant, how does the protein stability index read?
Its protein stability index is 2.77.

For HLYPADFRFDKPKKSRLPASAEAP [S17L], which protein stability index is on record?
Its protein stability index is 2.9.

For HLYPADFRFDKPKKSRYPASAEAP [S17Y], which protein stability index is on record?
Its protein stability index is 2.29.

Which protein stability index does the source give for HLYPADFRFDKPKKSRPPASAEAP [S17P] here?
The protein stability index was 2.83.

Which protein stability index does the source give for HLYPADFRFDKPKKSRDPASAEAP [S17D] here?
The protein stability index was 3.28.

With HLYPADFRFDKPKKSRCPASAEAP [S17C] as the variant, how does the protein stability index read?
The protein stability index was 2.9.

With HLYPADFRFDKPKKSRAPASAEAP [S17A] as the variant, how does the protein stability index read?
Its protein stability index is 2.61.

With HLYPADFRFDKPKKSRNPASAEAP [S17N] as the variant, how does the protein stability index read?
The protein stability index was 3.16.

For HLYPADFRFDKPKKSRVPASAEAP [S17V], which protein stability index is on record?
Its protein stability index is 2.28.

With HLYPADFRFDKPKKSRTPASAEAP [S17T] as the variant, how does the protein stability index read?
Its protein stability index is 2.97.

With HLYPADFRFDKPKKSRSPCSAEAP [A19C] as the variant, how does the protein stability index read?
Its protein stability index is 2.63.

For HLYPADFRFDKPKKSRSPGSAEAP [A19G], which protein stability index is on record?
Its protein stability index is 3.02.

Which protein stability index does the source give for HLYPADFRFDKPKKSRSPKSAEAP [A19K] here?
Its protein stability index is 3.54.

With HLYPADFRFDKPKKSRSPESAEAP [A19E] as the variant, how does the protein stability index read?
Its protein stability index is 2.97.

For HLYPADFRFDKPKKSRSPDSAEAP [A19D], which protein stability index is on record?
Its protein stability index is 3.36.

For HLYPADFRFDKPKKSRSPFSAEAP [A19F], which protein stability index is on record?
Its protein stability index is 2.05.

With HLYPADFRFDKPKKSRSPHSAEAP [A19H] as the variant, how does the protein stability index read?
Its protein stability index is 2.68.

For HLYPADFRFDKPKKSRSPISAEAP [A19I], which protein stability index is on record?
Its protein stability index is 2.74.

Which protein stability index does the source give for HLYPADFRFDKPKKSRSEASAEAP [P18E] here?
The protein stability index was 2.74.

Which protein stability index does the source give for HLYPADFRFDKPKKSRSNASAEAP [P18N] here?
The protein stability index was 2.34.

For HLYPADFRFDKPKKSRSRASAEAP [P18R], which protein stability index is on record?
Its protein stability index is 2.79.

With HLYPADFRFDKPKKSRSFASAEAP [P18F] as the variant, how does the protein stability index read?
The protein stability index was 2.3.

For HLYPADFRFDKPKKSRSKASAEAP [P18K], which protein stability index is on record?
The protein stability index was 3.08.

For HLYPADFRFDKPKKSRSSASAEAP [P18S], which protein stability index is on record?
The protein stability index was 2.97.

Which protein stability index does the source give for HLYPADFRFDKPKKSRSDASAEAP [P18D] here?
Its protein stability index is 3.09.

Which protein stability index does the source give for HLYPADFRFDKPKKSRSHASAEAP [P18H] here?
Its protein stability index is 2.74.

With HLYPADFRFDKPKKSRSLASAEAP [P18L] as the variant, how does the protein stability index read?
Its protein stability index is 2.73.

With HLYPADFRFDKPKKSRSIASAEAP [P18I] as the variant, how does the protein stability index read?
Its protein stability index is 2.96.

Which protein stability index does the source give for HLYPADFRFDKPKKSRSTASAEAP [P18T] here?
The protein stability index was 3.52.

For HLYPADFRFDKPKKSRSAASAEAP [P18A], which protein stability index is on record?
The protein stability index was 2.22.

With HLYPADFRFDKPKKSRSYASAEAP [P18Y] as the variant, how does the protein stability index read?
The protein stability index was 2.34.

Which protein stability index does the source give for HLYPADFRFDKPKKSRSGASAEAP [P18G] here?
The protein stability index was 2.58.

Which protein stability index does the source give for HLYPADFRFDKPKKSRSCASAEAP [P18C] here?
Its protein stability index is 2.97.

With HLYPADFRFDKPKKSRSQASAEAP [P18Q] as the variant, how does the protein stability index read?
The protein stability index was 2.56.

With HLYPADFRFDKPKKSRSMASAEAP [P18M] as the variant, how does the protein stability index read?
Its protein stability index is 2.78.

For HLYPADFRFDKPKKSRSWASAEAP [P18W], which protein stability index is on record?
Its protein stability index is 2.51.

For HLYPADFRFDKPKKSRSVASAEAP [P18V], which protein stability index is on record?
Its protein stability index is 2.33.

For HLYPADFRFDKPEKSRSPASAEAP [K13E], which protein stability index is on record?
The protein stability index was 3.34.

With HLYPADFRFDKPMKSRSPASAEAP [K13M] as the variant, how does the protein stability index read?
Its protein stability index is 2.84.

Which protein stability index does the source give for HLYPADFRFDKPGKSRSPASAEAP [K13G] here?
Its protein stability index is 2.92.

Which protein stability index does the source give for HLYPADFRFDKPSKSRSPASAEAP [K13S] here?
Its protein stability index is 2.91.

With HLYPADFRFDKPDKSRSPASAEAP [K13D] as the variant, how does the protein stability index read?
The protein stability index was 3.04.

With HLYPADFRFDKPLKSRSPASAEAP [K13L] as the variant, how does the protein stability index read?
The protein stability index was 2.94.

For HLYPADFRFDKPVKSRSPASAEAP [K13V], which protein stability index is on record?
The protein stability index was 2.22.

With HLYPADFRFDKPHKSRSPASAEAP [K13H] as the variant, how does the protein stability index read?
Its protein stability index is 2.78.

With HLYPADFRFDKPTKSRSPASAEAP [K13T] as the variant, how does the protein stability index read?
The protein stability index was 3.18.

Which protein stability index does the source give for HLYPADFRFDKPAKSRSPASAEAP [K13A] here?
The protein stability index was 3.07.

Which protein stability index does the source give for HLYPADFRFDKPIKSRSPASAEAP [K13I] here?
Its protein stability index is 3.

With HLYPADFRFDKPFKSRSPASAEAP [K13F] as the variant, how does the protein stability index read?
Its protein stability index is 2.7.

Which protein stability index does the source give for HLYPADFRFDKPRKSRSPASAEAP [K13R] here?
Its protein stability index is 3.2.

For HLYPADFRFDKPNKSRSPASAEAP [K13N], which protein stability index is on record?
The protein stability index was 2.7.

Which protein stability index does the source give for HLYPADFRFDKPYKSRSPASAEAP [K13Y] here?
The protein stability index was 3.56.

Which protein stability index does the source give for HLYPADFRFDKPQKSRSPASAEAP [K13Q] here?
Its protein stability index is 3.4.

Which protein stability index does the source give for HLYPADFRFDKPWKSRSPASAEAP [K13W] here?
Its protein stability index is 2.58.

With HLYPADFRFDKPCKSRSPASAEAP [K13C] as the variant, how does the protein stability index read?
The protein stability index was 2.8.

With HLYPADFRFDKPPKSRSPASAEAP [K13P] as the variant, how does the protein stability index read?
Its protein stability index is 3.64.
